Reference: paper PMC4001850 (Journal of Alzheimer's disease : JAD, 2011)
Where no end group is shown, it is not given here.

B1: eAβPP_(290-624), His-Patch thioredoxin fusion (52-kDa) (domain or fragment, human, UniProt P05067-4 290-624, looked up)
chain: PTTAASTPDAVDKYLETPGDENEHAHFQKAKERLEAKHRERMSQVMREWEEAERQAKNLPKADKKAVIQHFQEKVESLEQEAANERQQLVETHMARVEAMLNDRRRLALENYITALQAVPPRPRHVFNMLKKYVRAEQKDRQHTLKHFEHVRMVDPKKAAQIRSQVMTHLRVIYERMNQSLSLLYNVPAVAEEIQDEVDELLQKEQNYSDDVLANMISEPRISYGNDALMPSLTETKTTVELLPVNGEFSLDDLQPWHSFGADSVPANTENEVEPVDARPAADRGLTTRPGSGLTNIKTEEISEVKMDAEFRHDSGYEVHHQKLVFFAEDVGSNK

Molecular target: the molecule itself
Assay: SEC

Protein | stoichiometry N
LTTRPGSGLTNIKTEEISEVKMDAEFRHDSGYEVHHQKLVFFAEDVGSNK (domain or fragment, human, UniProt P05067-4 575-624, looked up, also: His-Patch thioredoxin fusion (20 kDa), side not given here) [eAβPP_(575-624), His-Patch thioredoxin fusion (20-kDa)] | ~2
B1 | ~2
